Measured values as given in patent US20200079833A1 (AstraZeneca / MedImmune, published 2020).
Starred links: 1 amine or outer side, 2 acyl side, 3 side chain; linkers in the order of their positions; H or OH if unused. Non-standard residues stand in square brackets, D forms with d. Groups on a side chain read outwards from the residue. Primed or numbered codes have the meaning given here. No end group written: not given here. *: point of attachment. Dodecanoyl(12-OPh(4-COOH)) = O=C(O)c1ccc(OCCCCCCCCCCCC(=O)*)cc1; γGlu = O=C(O)[C@H](CCC(=O)[*:2])N[*:1]; Stearoyl = CCCCCCCCCCCCCCCCCC(=O)*; αMeF = C[C@](N)(Cc1ccccc1)C(=O)O; αMeK = C[C@](N)(CCCCN)C(=O)O; αMeS = C[C@](N)(CO)C(=O)O; PEG2′ = not defined here; Aib = CC(C)(N)C(=O)O; Ahx = NCCCCCC(=O)O

T1: glucose-dependent insulinotropic peptide (gastric inhibitory polypeptide) receptor (human, UniProt P48546 22-466)
T1 sequence (looked up): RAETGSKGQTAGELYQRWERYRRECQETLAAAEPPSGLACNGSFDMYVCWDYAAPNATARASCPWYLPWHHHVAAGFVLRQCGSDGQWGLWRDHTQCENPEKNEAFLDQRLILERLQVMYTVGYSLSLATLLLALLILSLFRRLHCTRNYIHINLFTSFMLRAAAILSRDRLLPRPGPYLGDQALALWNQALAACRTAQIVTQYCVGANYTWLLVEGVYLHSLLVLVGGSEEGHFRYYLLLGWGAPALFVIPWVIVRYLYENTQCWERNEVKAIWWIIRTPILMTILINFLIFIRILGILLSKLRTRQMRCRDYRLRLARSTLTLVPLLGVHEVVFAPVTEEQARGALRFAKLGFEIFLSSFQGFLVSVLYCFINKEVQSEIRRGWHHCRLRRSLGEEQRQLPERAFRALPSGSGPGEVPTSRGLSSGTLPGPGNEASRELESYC

T2: glucose-dependent insulinotropic peptide (gastric inhibitory polypeptide) receptor (GIPR) (human, UniProt P48546 22-466)
T2 sequence (looked up): T1 sequence (looked up)

B1: SEQ ID NO 17 (peptide)
peptide: H[Aib]EGS[αMeF]TSDV[αMeS]S[αMeF]LEGEAA[αMeK]E[αMeF]IA[αMeF]VV[αMeK]GG-NH2
modifications: N-terminus assumed
SMILES: CC[C@H](C)[C@H](NC(=O)[C@](C)(Cc1ccccc1)NC(=O)[C@H](CCC(=O)O)NC(=O)[C@](C)(CCCCN)NC(=O)[C@H](C)NC(=O)[C@H](C)NC(=O)[C@H](CCC(=O)O)NC(=O)CNC(=O)[C@H](CCC(=O)O)NC(=O)[C@H](CC(C)C)NC(=O)[C@](C)(Cc1ccccc1)NC(=O)[C@H](CO)NC(=O)[C@](C)(CO)NC(=O)[C@@H](NC(=O)[C@H](CC(=O)O)NC(=O)[C@H](CO)NC(=O)[C@@H](NC(=O)[C@](C)(Cc1ccccc1)NC(=O)[C@H](CO)NC(=O)CNC(=O)[C@H](CCC(=O)O)NC(=O)C(C)(C)NC(=O)[C@@H](N)Cc1c[nH]cn1)[C@@H](C)O)C(C)C)C(=O)N[C@@H](C)C(=O)N[C@@](C)(Cc1ccccc1)C(=O)N[C@H](C(=O)N[C@H](C(=O)N[C@@](C)(CCCCN)C(=O)NCC(=O)NCC(N)=O)C(C)C)C(C)C
B2: SEQ ID NO 142 (peptide)
peptide: H[Aib]EGS[αMeF]TSDV[αMeS]S[αMeF]LEGEAAK([Ahx-Ahx-Ahx-Dodecanoyl(12-OPh(4-COOH))])E[αMeF]IA[αMeF]VV[αMeK]GG-NH2
modifications: N-terminus assumed
SMILES: CC[C@H](C)[C@H](NC(=O)[C@](C)(Cc1ccccc1)NC(=O)[C@H](CCC(=O)O)NC(=O)[C@H](CCCCNC(=O)CCCCCNC(=O)CCCCCNC(=O)CCCCCNC(=O)CCCCCCCCCCCOc1ccc(C(=O)O)cc1)NC(=O)[C@H](C)NC(=O)[C@H](C)NC(=O)[C@H](CCC(=O)O)NC(=O)CNC(=O)[C@H](CCC(=O)O)NC(=O)[C@H](CC(C)C)NC(=O)[C@](C)(Cc1ccccc1)NC(=O)[C@H](CO)NC(=O)[C@](C)(CO)NC(=O)[C@@H](NC(=O)[C@H](CC(=O)O)NC(=O)[C@H](CO)NC(=O)[C@@H](NC(=O)[C@](C)(Cc1ccccc1)NC(=O)[C@H](CO)NC(=O)CNC(=O)[C@H](CCC(=O)O)NC(=O)C(C)(C)NC(=O)[C@@H](N)Cc1c[nH]cn1)[C@@H](C)O)C(C)C)C(=O)N[C@@H](C)C(=O)N[C@@](C)(Cc1ccccc1)C(=O)N[C@H](C(=O)N[C@H](C(=O)N[C@@](C)(CCCCN)C(=O)NCC(=O)NCC(N)=O)C(C)C)C(C)C
B3: SEQ ID NO 141 (peptide)
peptide: H[Aib]EGS[αMeF]TSDV[αMeS]S[αMeF]LEGEAAK([Ahx-Ahx-Dodecanoyl(12-OPh(4-COOH))])E[αMeF]IA[αMeF]VV[αMeK]GG-NH2
modifications: N-terminus assumed
SMILES: CC[C@H](C)[C@H](NC(=O)[C@](C)(Cc1ccccc1)NC(=O)[C@H](CCC(=O)O)NC(=O)[C@H](CCCCNC(=O)CCCCCNC(=O)CCCCCNC(=O)CCCCCCCCCCCOc1ccc(C(=O)O)cc1)NC(=O)[C@H](C)NC(=O)[C@H](C)NC(=O)[C@H](CCC(=O)O)NC(=O)CNC(=O)[C@H](CCC(=O)O)NC(=O)[C@H](CC(C)C)NC(=O)[C@](C)(Cc1ccccc1)NC(=O)[C@H](CO)NC(=O)[C@](C)(CO)NC(=O)[C@@H](NC(=O)[C@H](CC(=O)O)NC(=O)[C@H](CO)NC(=O)[C@@H](NC(=O)[C@](C)(Cc1ccccc1)NC(=O)[C@H](CO)NC(=O)CNC(=O)[C@H](CCC(=O)O)NC(=O)C(C)(C)NC(=O)[C@@H](N)Cc1c[nH]cn1)[C@@H](C)O)C(C)C)C(=O)N[C@@H](C)C(=O)N[C@@](C)(Cc1ccccc1)C(=O)N[C@H](C(=O)N[C@H](C(=O)N[C@@](C)(CCCCN)C(=O)NCC(=O)NCC(N)=O)C(C)C)C(C)C

Molecular target: glucagon receptor (human, UniProt P47871 26-477)
Experiment: cell-based or functional assay

Chain of glucagon receptor (P47871 26-477): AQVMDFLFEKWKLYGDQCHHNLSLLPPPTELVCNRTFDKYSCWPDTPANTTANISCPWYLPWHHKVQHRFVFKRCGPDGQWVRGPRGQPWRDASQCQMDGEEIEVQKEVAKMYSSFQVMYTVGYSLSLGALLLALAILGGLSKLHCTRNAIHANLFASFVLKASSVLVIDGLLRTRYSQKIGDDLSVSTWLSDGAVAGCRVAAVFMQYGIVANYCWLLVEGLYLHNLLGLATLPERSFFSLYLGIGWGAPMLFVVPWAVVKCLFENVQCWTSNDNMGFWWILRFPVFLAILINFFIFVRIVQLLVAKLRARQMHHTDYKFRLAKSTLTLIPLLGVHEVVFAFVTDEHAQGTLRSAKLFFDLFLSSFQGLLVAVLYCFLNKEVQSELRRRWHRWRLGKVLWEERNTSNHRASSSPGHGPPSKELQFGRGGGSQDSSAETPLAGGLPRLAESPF

Binder | Primary assay EC50 (cAMP), n1 | Primary assay EC50 (cAMP), n2
HXEGTFTSDVSSYLEGQAAKEFIAWLVKGR (Aib 2; α-MeSer 11; C-terminal amide) [SEQ ID NO 21] | 340 nM | 340 nM
H[Aib]EGS[αMeF]TSDV[αMeS]S[αMeF]LEGEAAK([PEG2′-PEG2′-γGlu-Stearoyl])E[αMeF]IA[αMeF]VV[αMeK]GG-NH2 [SEQ ID NO 3] | 25 nM | 25 nM
B1 | 31 nM | 31 nM
HXEGTFTSDVSSYLEGQAAKEFIAWLVKGR (Aib 2; α-MeSer 8; α-MeSer 11; C-terminal amide) [SEQ ID NO 23] | 540 nM | 540 nM
HXEGTFTSDVSSYLEGQAAKEFIAWLVKGR (Aib 2; α-MeSer 8; C-terminal amide) [SEQ ID NO 19] | 130 nM | 130 nM

Molecular target: GLP-1 receptor (GLP-1R) (human, UniProt P43220 24-463)
Experiment: cell-based or functional assay

Binder | cAMP Mean pM GLP-1R | cAMP Primary assay EC50 GLP-1R n1 | cAMP Primary assay EC50 GLP-1R n2
B2 | 10.1 pM | 0.012 nM | 0.0079 nM
H[Aib]EGS[αMeF]TSDV[αMeS]S[αMeF]LEGEAAK([PEG2′-PEG2′-Dodecanoyl(12-OPh(4-COOH))])E[αMeF]IA[αMeF]VV[αMeK]GG-NH2 [SEQ ID NO 144] | 12.6 pM | 0.016 nM | 0.0096 nM
H[Aib]EGS[αMeF]TSDV[αMeS]S[αMeF]LEGEAAK([PEG2′-PEG2′-PEG2′-Dodecanoyl(12-OPh(4-COOH))])E[αMeF]IA[αMeF]VV[αMeK]GG-NH2 [SEQ ID NO 145] | 21 pM | 0.027 nM | 0.015 nM
B3 | 6.9 pM | 0.0087 nM | 0.005 nM
H[Aib]EGS[αMeF]TSDV[αMeS]S[αMeF]LEGEAAK([PEG2′-Dodecanoyl(12-OPh(4-COOH))])E[αMeF]IA[αMeF]VV[αMeK]GG-NH2 [SEQ ID NO 143] | 8.6 pM | 0.012 nM | 0.0052 nM

Molecular target: T1, glucose-dependent insulinotropic …
Experiment: cell-based or functional assay

Binder | Primary assay EC50 (cAMP), n1 | Primary assay EC50 (cAMP), n2
HXEGTFTSDVSSYLEGQAAKEFIAWLVKGR (Aib 2; α-MeSer 11; C-terminal amide) [SEQ ID NO 21] | 340 nM | 340 nM
H[Aib]EGS[αMeF]TSDV[αMeS]S[αMeF]LEGEAAK([PEG2′-PEG2′-γGlu-Stearoyl])E[αMeF]IA[αMeF]VV[αMeK]GG-NH2 [SEQ ID NO 3] | 25 nM | 25 nM
B1 | 31 nM | 31 nM
HXEGTFTSDVSSYLEGQAAKEFIAWLVKGR (Aib 2; α-MeSer 8; α-MeSer 11; C-terminal amide) [SEQ ID NO 23] | 540 nM | 540 nM
HXEGTFTSDVSSYLEGQAAKEFIAWLVKGR (Aib 2; α-MeSer 8; C-terminal amide) [SEQ ID NO 19] | 130 nM | 130 nM

Molecular target: T2, glucose-dependent insulinotropic …
Experiment: cell-based or functional assay

Binder | cAMP Primary assay EC50 GIP-R | cAMP Primary assay EC50 GIP-R (2nd)
B2 | 26 nM | 26 nM
H[Aib]EGS[αMeF]TSDV[αMeS]S[αMeF]LEGEAAK([PEG2′-PEG2′-Dodecanoyl(12-OPh(4-COOH))])E[αMeF]IA[αMeF]VV[αMeK]GG-NH2 [SEQ ID NO 144] | 26 nM | 26 nM
H[Aib]EGS[αMeF]TSDV[αMeS]S[αMeF]LEGEAAK([PEG2′-PEG2′-PEG2′-Dodecanoyl(12-OPh(4-COOH))])E[αMeF]IA[αMeF]VV[αMeK]GG-NH2 [SEQ ID NO 145] | 25 nM | 25 nM
B3 | 27 nM | 27 nM
H[Aib]EGS[αMeF]TSDV[αMeS]S[αMeF]LEGEAAK([PEG2′-Dodecanoyl(12-OPh(4-COOH))])E[αMeF]IA[αMeF]VV[αMeK]GG-NH2 [SEQ ID NO 143] | 27 nM | 27 nM

Molecular target: glucagon receptor (GCGR) (human, UniProt P47871 26-477)
Experiment: cell-based or functional assay

Chain of glucagon receptor (GCGR) (P47871 26-477): as the sequence (P47871 26-477) above

Binder | cAMP Primary assay EC50 Gluc-R | cAMP Primary assay EC50 Gluc-R (2nd)
B2 | 26 nM | 26 nM
H[Aib]EGS[αMeF]TSDV[αMeS]S[αMeF]LEGEAAK([PEG2′-PEG2′-Dodecanoyl(12-OPh(4-COOH))])E[αMeF]IA[αMeF]VV[αMeK]GG-NH2 [SEQ ID NO 144] | 26 nM | 26 nM
H[Aib]EGS[αMeF]TSDV[αMeS]S[αMeF]LEGEAAK([PEG2′-PEG2′-PEG2′-Dodecanoyl(12-OPh(4-COOH))])E[αMeF]IA[αMeF]VV[αMeK]GG-NH2 [SEQ ID NO 145] | 25 nM | 25 nM
B3 | 27 nM | 27 nM
H[Aib]EGS[αMeF]TSDV[αMeS]S[αMeF]LEGEAAK([PEG2′-Dodecanoyl(12-OPh(4-COOH))])E[αMeF]IA[αMeF]VV[αMeK]GG-NH2 [SEQ ID NO 143] | 27 nM | 27 nM

Molecular target: GLP-1 receptor (human, UniProt P43220 24-463)
Experiment: cell-based or functional assay

Binder | Primary assay EC50 (cAMP), Mean pM GLP-1R | Primary assay EC50 (cAMP), n1 | Primary assay EC50 (cAMP), n2
H[Aib]EGS[αMeF]TSDV[αMeS]S[αMeF]LEGEAAK([PEG2′-PEG2′-γGlu-Stearoyl])E[αMeF]IA[αMeF]VV[αMeK]GG-NH2 [SEQ ID NO 3] | 100 pM | 0.064 nM | 0.14 nM
B1 | 0.2 pM | 0.00025 nM | 0.00024 nM
